Measurements as given in patent publication US20220332804A1 (CSL INNOVATION, published 2022).
Changes are numbered by the printed parent chain.

Legend:
Experiment in all cases: SPR, antibody captured, C2 as analyte;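 also: biacore SPR at 37 °C, anti-C2 mAbs captured via goat anti-human IgG on CM5 chips, double-referenced sensorgrams fit to a 1:1 kinetic or steady-state model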
human C2 V455A = target: T1, human C2 V455A (human, UniProt P06681 21-752)
T1 sequence: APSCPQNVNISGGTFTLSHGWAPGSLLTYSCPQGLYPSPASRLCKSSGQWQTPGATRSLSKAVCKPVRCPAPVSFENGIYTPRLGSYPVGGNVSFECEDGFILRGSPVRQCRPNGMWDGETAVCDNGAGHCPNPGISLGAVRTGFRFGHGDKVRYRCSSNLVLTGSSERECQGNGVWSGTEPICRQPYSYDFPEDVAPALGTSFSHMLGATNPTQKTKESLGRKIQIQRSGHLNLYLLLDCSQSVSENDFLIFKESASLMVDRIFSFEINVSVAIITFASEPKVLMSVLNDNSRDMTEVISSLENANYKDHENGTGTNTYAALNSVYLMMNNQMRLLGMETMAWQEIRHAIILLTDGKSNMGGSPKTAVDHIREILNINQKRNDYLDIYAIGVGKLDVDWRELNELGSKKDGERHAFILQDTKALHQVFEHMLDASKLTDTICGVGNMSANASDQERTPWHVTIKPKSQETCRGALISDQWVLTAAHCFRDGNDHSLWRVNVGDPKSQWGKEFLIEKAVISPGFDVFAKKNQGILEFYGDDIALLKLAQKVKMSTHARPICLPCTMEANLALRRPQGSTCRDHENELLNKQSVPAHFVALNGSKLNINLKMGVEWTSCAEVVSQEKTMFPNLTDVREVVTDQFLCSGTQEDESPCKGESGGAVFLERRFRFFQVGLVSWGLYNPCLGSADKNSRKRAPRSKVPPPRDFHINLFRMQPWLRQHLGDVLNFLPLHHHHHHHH

human C2 N424A = target: T2, human C2 N424A (human, UniProt P06681 21-752)
T2 sequence: T1 sequence with N404A, A435V

human C2 G432A = target: T3, human C2 G432A (human, UniProt P06681 21-752)
T3 sequence: T1 sequence with G412A, A435V

human C2 D431A = target: T4, human C2 D431A (human, UniProt P06681 21-752)
T4 sequence: T1 sequence with D411A, A435V

B1: RF16-226 (antibody, human IgG4 S228P, lambda)
heavy: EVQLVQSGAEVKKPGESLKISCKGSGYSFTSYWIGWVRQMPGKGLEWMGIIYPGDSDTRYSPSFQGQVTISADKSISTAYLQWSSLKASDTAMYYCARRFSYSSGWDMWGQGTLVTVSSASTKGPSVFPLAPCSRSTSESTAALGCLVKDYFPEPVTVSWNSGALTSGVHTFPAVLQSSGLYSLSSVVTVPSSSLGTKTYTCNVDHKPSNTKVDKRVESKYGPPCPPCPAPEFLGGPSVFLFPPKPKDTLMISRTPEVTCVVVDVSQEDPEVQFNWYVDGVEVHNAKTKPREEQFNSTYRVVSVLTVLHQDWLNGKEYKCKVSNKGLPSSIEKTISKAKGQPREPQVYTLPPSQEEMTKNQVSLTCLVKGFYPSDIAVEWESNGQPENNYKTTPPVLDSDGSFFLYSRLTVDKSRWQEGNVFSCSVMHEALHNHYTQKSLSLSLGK
light: SYELTQPPSVSVSPGQTARITCSGDALTSKYVAWYQQKSGLAPLLVIYEDTRRPSGIPAKFSGSSSGSVATLTISGAHGDDEADYYCYSTDASGHQRVFGGGTKLTVLSQPKAAPSVTLFPPSSEELQANKATLVCLISDFYPGAVTVAWKADGSPVKAGVETTKPSKQSNNKYAASSYLSLTPEQWKSHRSYSCQVTHEGSTVEKTVAPTECS
notes: pH-dependent anti-C2 antibody from a phage display library; also called WT
With B1 as the binder, how does the Kd (human C2 V455A) read?
Its Kd is 9 nM.

And the Kd (human C2 N424A)?
Its Kd is 3.2 nM.

What about the Kd (human C2 G432A) of the same binder?
Its Kd is 6.6 nM.

And the Kd (human C2 D431A)?
Its Kd is 43.4 nM.
